Entries after “also recorded” stand apart in the source; their conditions may differ.
B1: TAT-Casp3MUT: catalytically inactive TAT-Casp3 with Met substituted for the active site Cys163 residue (protein)
chain: GRKKRRQRRRGYPYDVPDYACTERQANFLGKIWPGISLDNSYKMDYPEMGLCIIINNKNFHKSTGMTSRSGTDVDAANLRETFRNLKYEVRNKNDLTREEIVELMRDVSKEDHSKRSSFVCVLLSHGEEGIIFGTNGPVDLKKITNFFRGDRCRSLTGKPKLFIIQAMRGTELDCGIETSQVSQNYPIVQNLQGVDDDMACHKIPVEADFLYAYSTAPGYYSWRNSKDGSWFIQSLCAMLKQYADKLEFMHILTRVNRKVATEFESFSFDATFHAKKQIPCIVSMLTKELYFYH
modifications: left off: small tags and cut ends

Experiments:
[1] = system: Jurkat T cells; assay: FACS and confocal analysis of FITC-labeled TAT fusion proteins added to Jurkat T cells; type: cell-based; conditions: FITC-labeled protein added to media of Jurkat T cells
Experimental: To test the ability of TAT-Casp3 proteins to transduce into cells, TAT-Casp3 proteins were conjugated to fluorescein (FITC), then added directly to the media of Jurkat T cells and analyzed by Flow Cytometry (FACS) (FIGS. 9B-C). Both TAT-Casp3WT and TAT-Casp3MUT proteins rancidly transduced into ˜100% of cells, achieving maximum intracellular concentration in less than 20 min. In addition, based on the narrow peak width before and after addition of FITC labeled proteins, individual cells within the population contain near identical intracellular concentrations of TAT-Casp3-FITC protein. […] Thus, TAT-Casp3 proteins readily transduce into 100% of all cells inca rapid and concentration-dependent fashion.
The generation and transduction of TAT fusion proteins shown in FIGS. 9A-E are explained in more detail as follows: FIG. 9A. Diagram depicting HIV cleavage site sequences and domains of TAT fusion proteins. FIGS. 9B-D. FACS kinetic analysis of fluorescein (FITC) labeled TAT-Casp3WT, TAT-Casp3MUT and TAT-HIV Pr proteins added to cells at 0, 20 and 30 min. FIG. 9E. FACS dose analysis of 3, 6, and 12 nM TAT-Casp3WT-FITC protein added to cells at I hr post-addition. Note rapid, concentration-dependent transduction of all FITC labeled protein into ˜100% of cells and near identical intracellular concentration within the population as measured by FACS peak width of control vs. transduced cells.
(§1) 1. […] See Lissy, N. A., et al. (supra). […] See Ezhevsky, S. A., et al. (supra). […] See Xiang, J., et al., (supra). […] See Xiang, J., et al., (supra). […] See Ezhevsky, S. A., et al. (supra).

[2] = system: Jurkat T cells; assay: Cytotoxicity of TAT-Casp3 on uninfected Jurkat T cells, viability by Trypan Blue exclusion; conditions: 100 nM TAT-Casp3 or 50 nM TAT-HIV Pr, uninfected Jurkat T cells, 16 hr
Experimental: In addition, the ability of TAT-Casp3 protein to induce apoptosis in cells co-transduced with TAT-HIV Pr protein was tested. Jurkat T cells were treated with 100 nM TAT-Casp3WT or TATCasp3MUT proteins alone or in combination with 50 nM TAT-HIV Pr protein and assayed for cell viability 16 hr post-treatment (FIG. 11A). […] See Salvensen, G. S., et al., Henkart, P. A., Cohen, G. M., Woo, M., et al., Enari, M. et al., Liu, X., et al. (supra).
FIG. 11A Cultures of Jurkat T cells were transduced with combinations of TAT-Casp3WT (WT), TAT-Casp3MUT (MUT) and TAT-HIV Protease (Pr) proteins for 16 hr and analyzed for cell viability. […] FIG. 11B Cultures of Jurkat T cells were co-transduced with TAT-Casp3WT (WT), TAT-Casp3MUT (MUT) proteins in combination with TAT-HIV Pr (Pr) protein and analyzed for kinetics of cell viability as indicated.
1. Cell culture-p16(−) Jurkat T cells (ATCC) were grown as described. See Lissy, N. A., et al. (supra). For in vivo substrate cleavage, 1×10^6 cells were transduced with 100 nM TAT-p16, TAT-A-p16, TAT-Casp3MUT and/or 50 nM TAT-HIV Pr proteins for 1, 5 or 8 hr as indicated and analyzed by anti-p16 (Santa Cruz) or anti-Casp3 (Pharmingen) immunoblot analysis. See Ezhevsky, S. A., et al. (supra). For cytotoxicity of TAT-Casp3 on uninfected cells, 1×10^6 cells were transduced with 100 nM TAT-Casp3WT, TAT-Casp3MUT and/or 50 nM TAT-HIV Pr proteins for 16 hr and assayed for viability by Trypan Blue exclusion and/or genomic DNA damage by TUNEL assay (Trevigen). Number of TUNEL positive cells reported as per high-powered microscopic field with four fields per experiment averaged. TAT-Casp3 activity was measured by incubation of 20 μg of whole cell lysate with 50 μM DEVD-AFC and fluorescent AFC formation measured on a FL500 microplate fluorescence reader (Bio-Tek) as described. See Xiang, J., et al., (supra). Cells were preincubated with 1 μg/ml Ritonavir (Abbott Labs) for 1 hr prior to transduction. For cytotoxicity of TAT-Casp3 on infected cells, Jurkat cultures were infected with 100 ng p24 Ag equivalent NLHX HIV-I strain for 7-14 days, assayed microscopically for cytopathic effects, then replated at 1×10^6/ml and transduced with 100 nM of TAT-Casp3WT or TAT-Casp3MUT proteins for 16 hr followed by exclusionary dye viability analysis. Infected cells were pretreated with 1 μg/ml Ritonavir for 24 hr prior to transduction with TAT-Casp3WT protein. See Xiang, J., et al., (supra). For Flow Cytometry (FACS) analysis, fluorescein (FITC) conjugated TAT fusion proteins were added to Jurkat T cell culture media and 1×10^4 cells were analyzed by FACS as described. See Ezhevsky, S. A., et al. (supra).

[3] = system: Jurkat T cells; assay: TUNEL assay for degraded genomic DNA in transduced Jurkat T cells; type: cell-based; conditions: for TUNEL positive cells, protein transduced alone: 100 nM TAT-Casp3 or 50 nM TAT-HIV Pr
Experimental: (§2) Additionally, transduced cultures were tested for degraded genomic DNA by TUNEL assay. See Coates, P. J., Molecular methods for the identification of apoptosis in tissues. J. Histotechnology 17: 261 (1994). […] Activation of TAT-Casp3 was also assayed by its ability to cleave an artificial Caspase-3 substrate. […] See Xiang, J., et al., Bax-induced cell death may not require interleukin 1B-converting enzyme-like proteases. Proc. Natl. Acad. Sci. USA 93: 14550 (1996).
(§3) The HIV Protease activates TAT-Casp3WT protein shown in FIGS. 12A-B are explained in more detail as follows. FIG. 12A. […] Abscissa: TUNEL positive cells per high-powered microscopic field; Ctrl, control addition of PBS to cultures; error bars represent SD. FIG. 12B. […] Ctrl, control PBS addition; ocFAS crosslinking, positive control.
as §1

[4] = system: caspase-3 activity (DEVD-AFC cleavage); assay: Caspase-3 enzyme assay, cleavage of DEVD-AFC by whole cell lysate of transduced Jurkat T cells; type: cell-based; conditions: 6 hr
Experimental: as §2, §3, §1

[5] = biological target: T1, HIV Protease (Human immunodeficiency virus type 1 group M subtype B, UniProt P04585); assay: In vivo substrate cleavage by co-transduced TAT-HIV Pr in Jurkat T cells, immunoblot; type: cell-based; conditions: 100 nM substrate, 50 nM TAT-HIV Pr, Jurkat T cells, immunoblot
T1 construct: PCR cloning the HIV Protease gene from HXB2R HIV strain; 6xHis (from the pTAT vector) (N); made in house; the purified protein was added to Jurkat T cells
Experimental: To assay for in vivo cleavage, p 16(−) Jurkat T cells were transduced with 100 nM TAT-Ap16 or control TAT-p16 protein (no HIV cleavage site) alone or in combination with 50 nM TATHIV Pr fusion protein for 5 hr and analyzed by anti-p16 immunoblot for in vivo cleavage at the HIV A proteolytic cleavage site (FIG. 10A). […] Size analysis of the cleaved TAT-A-p 16 protein was consistent with retention of the residual HIV half site present on the N′ terminus of p 16 (FIG. 10A, see lane 4 vs. 5).
Further, the TAT-Casp3MUT protein was transduced in combination with TAT-HIV Pr protein into cells (FIG. 10B).
The in vivo processing in co-transduced cells shown in FIGS. 10A and 10B is explained in more detail as follows. FIG. 10A. Cultures of p16(−) Jurkat T cells were transduced with TAT-p 16 or TAT-A-p 16 substrate proteins in combination with TATHIV Pr proteins for 5 hr and subjected to anti-p 16 immunoblot analysis. […] WCE, HepG2 whole cell lysate containing wild type endogenous p16; A-p16, cleaved TAT-A-16 product retaining the HIV half site on p16. FIG. 10B. Cultures of Jurkat T cells were transduced with TATCasp3MUT protein (TAT-“D” site-p 17 domain-“A” site-p12 domain) alone or in combination with TAT-HIV Pr (Pr) protein as indicated and immunoblotted with anti-Caspase-3 antibodies specific for the p17 domain. TAT-D-p17-A, cleaved product of TAT-Casp3 containing the N′ terminal HIV A half site.
as §1

[6] = system: Jurkat T cells infected with the NLHX strain of HIV-I; assay: Cytotoxicity of TAT-Casp3 on HIV infected Jurkat cultures, exclusionary dye viability analysis; type: cell-based; conditions: 100 nM, 16 hr, cultures approximately 50% HIV positive
Description: To make this determination, Jurkat T cells were infected for 7-14 days with the NLHX strain of HIV-I and examined microscopically for HIV cytopathic effects. See Westervelt, P., et al., Identification of a determinant within the HIV-1 surface envelope glycoprotein critical for productive infection of cultured primary monocytes. Proc. Natl. Acad. Sci USA 88: 3097 (1991). At the start of each transduction experiment approximately 50% of the culture was HIV positive. HIV infected cultures were transduced for 16 hr with 100 nM TAT-Casp3WT or TATCasp3MUT protein and then assayed for cell viability (FIG. 13). […] In addition, we detected both the appearance of cells containing <2N DNA content and cells with condensed nuclei in TAT-Casp3 treated cells.
To determine if TAT-Casp3WT induced apoptosis was dependent on active HIV Protease in the infected cultures, HIV infected cultures were pretreated with 1 μg/ml Ritonavir prior to transduction with 100 nM TAT-Casp3WT protein (FIG. 5). […] In addition, the observed increased survival of Ritonavir treated cells is consistent with increased longevity of protease inhibitor treated HIV infected cells. See Coffin, J. M., et al. (supra).
The specific killing of HIV infected cells shown in FIG. 5 is explained in more detail as follows. Jurkat T cells were infected for 7-14 days with HIV strain NLHX, then transduced with TAT-Casp3WT (WT) or TAT-Casp3MUT (MUT) proteins for 16 hr and assayed for cell viability. […] Ctrl, control addition of PBS to cultures; abscissa, % viability of HIV positive cells in the population at start of transduction; error bars represent SD.
as §1

| Molecule | cells transduced [1] [%] | cytotoxicity when transduced alone [2] | TUNEL positive cells, protein transduced alone [3] | caspase activity, protein transduced alone [4] | cleavage at the HIV cleavage site when co-transduced with TAT-HIV Pr [5] | TUNEL positive cells, co-transduced with TAT-HIV Pr ([3]; 100 nM plus 50 nM TAT-HIV Pr) | effect on viability of HIV positive cells [6] | effect on viability of HIV positive cells ([6]; listed as TATCasp3MUT) |
| --- | --- | --- | --- | --- | --- | --- | --- | --- |
| TAT-HIV Pr: transducible HIV Protease, gene from HXB2R HIV strain cloned into pTAT | 100 | absence | only background levels; also recorded: remained at background levels | only background levels |  |  |  |  |
| B1 | ~100 |  | only background levels; also recorded: remained at background levels | only background levels | specific cleavage | only background; also recorded: remained at background levels | no effect | negligible effects |

Source: patent US6645501B2, “Anti-pathogen system and methods of use thereof” (Washington University, priority 1997, dated 2003)
